The text below walks through data of patent publication US20200317768A1 (published 2020).

Assay [1] deals with T1, cynomolgus monkey FcγRIIb extracellular domain, His-tagged (cynomolgus monkey).
T1 construct: also called cyno FcγRIIb; cynoFcγRIIb; not shown: C-terminal His-tag
T1 chain: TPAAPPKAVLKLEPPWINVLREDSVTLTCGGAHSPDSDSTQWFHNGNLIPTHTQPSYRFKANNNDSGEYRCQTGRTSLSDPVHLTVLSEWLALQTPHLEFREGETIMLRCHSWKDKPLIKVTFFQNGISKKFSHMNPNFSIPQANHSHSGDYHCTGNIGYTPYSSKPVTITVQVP
Nature of the assay: SPR (BIACORE); KD of SG1 divided by KD of variant.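 Also: relative to parent M103205H795-SG1 carrying the SG1 human heavy chain constant region.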

In assay [2] the target is T2, human FcγRIIaR extracellular domain, His-tagged (human, UniProt P12318 34-217).
T2 construct: also called human FcγRIIa (type R); FcgRIIaR; not shown: C-terminal His-tag
T2 chain: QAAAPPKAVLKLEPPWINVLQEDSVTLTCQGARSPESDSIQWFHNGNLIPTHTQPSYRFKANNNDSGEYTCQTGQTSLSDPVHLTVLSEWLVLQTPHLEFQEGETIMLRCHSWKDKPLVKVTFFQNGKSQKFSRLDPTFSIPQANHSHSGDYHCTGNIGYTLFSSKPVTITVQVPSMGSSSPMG
Nature of the assay: SPR (BIACORE); KD of SG1 divided by KD of variant.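 Also: relative to parent M103205H795-SG1 carrying the SG1 human heavy chain constant region.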 In general terms: SPR reads the build-up and loss of mass on a sensor chip optically.

Assay [3] deals with T3, cynomolgus monkey FcγRIIa2 extracellular domain with C-terminal His-tag (cynomolgus monkey).
T3 construct: also called cyno FcgRIIa2; cynoFcγRIIa2
T3 chain: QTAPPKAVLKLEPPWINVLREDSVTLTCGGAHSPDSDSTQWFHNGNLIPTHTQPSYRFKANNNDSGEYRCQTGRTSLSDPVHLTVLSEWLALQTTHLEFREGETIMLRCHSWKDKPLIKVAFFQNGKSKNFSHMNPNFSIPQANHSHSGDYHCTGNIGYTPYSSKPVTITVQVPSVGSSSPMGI
Nature of the assay: SPR (BIACORE), antibody captured, FcgR analyte.

In assay [4] the target is T4, cynomolgus monkey FcγRIIa3 extracellular domain with C-terminal His-tag (cynomolgus monkey).
T4 construct: also called cyno FcgRIIa3; cynoFcγRIIa3
T4 chain: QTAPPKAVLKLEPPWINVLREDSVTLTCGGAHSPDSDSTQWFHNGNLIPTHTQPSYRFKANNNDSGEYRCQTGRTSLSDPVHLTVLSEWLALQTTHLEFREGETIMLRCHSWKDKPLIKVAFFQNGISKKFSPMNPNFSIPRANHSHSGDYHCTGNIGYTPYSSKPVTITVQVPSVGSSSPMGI
Nature of the assay: SPR (BIACORE), antibody captured, FcgR analyte.

In assay [5] the target is T5, cynomolgus monkey FcγRIIb extracellular domain with C-terminal His-tag (cynomolgus monkey).
T5 construct: also called cyno FcgRIIb; cynoFcγRIIb
T5 chain: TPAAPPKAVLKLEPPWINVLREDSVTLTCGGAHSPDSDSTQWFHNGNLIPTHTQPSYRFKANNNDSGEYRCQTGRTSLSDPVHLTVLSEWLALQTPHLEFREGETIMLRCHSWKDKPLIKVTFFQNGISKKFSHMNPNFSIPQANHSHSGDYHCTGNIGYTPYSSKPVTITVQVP
Nature of the assay: SPR (BIACORE), antibody captured, FcgR analyte.

Assay [6] addresses T6, cynomolgus monkey FcγRIIIaS extracellular domain with C-terminal His-tag (cynomolgus monkey, UniProt Q8SPW2 21-206 at identity 1.00)).
T6 construct: also called cyno FcgRIIIaS; cynoFcγRIIIaS
T6 chain: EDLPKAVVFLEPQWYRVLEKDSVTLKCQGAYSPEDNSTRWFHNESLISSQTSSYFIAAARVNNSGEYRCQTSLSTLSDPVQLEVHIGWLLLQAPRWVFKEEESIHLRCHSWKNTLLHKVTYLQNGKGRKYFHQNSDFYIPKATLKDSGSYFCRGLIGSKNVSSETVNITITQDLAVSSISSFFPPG
Nature of the assay: SPR (BIACORE), antibody captured, FcgR analyte.

Assay [7] concerns the target T7, human FcγRIIaH extracellular domain with C-terminal His-tag (human, UniProt P12318 34-217).
T7 construct: also called human FcgRIIaH; FcγRIIa (type H)
T7 sequence: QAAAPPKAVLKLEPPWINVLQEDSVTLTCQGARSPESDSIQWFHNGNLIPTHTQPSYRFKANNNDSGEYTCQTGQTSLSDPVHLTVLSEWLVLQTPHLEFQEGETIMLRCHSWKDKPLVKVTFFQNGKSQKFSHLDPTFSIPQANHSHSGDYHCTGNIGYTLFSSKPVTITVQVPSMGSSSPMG
Nature of the assay: SPR (BIACORE), antibody captured, FcgR analyte.

In assay [8] the target is T8, human FcγRIIaR extracellular domain with C-terminal His-tag (human, UniProt P12318 34-217).
T8 construct: also called human FcgRIIaR; FcγRIIa (type R)
T8 chain: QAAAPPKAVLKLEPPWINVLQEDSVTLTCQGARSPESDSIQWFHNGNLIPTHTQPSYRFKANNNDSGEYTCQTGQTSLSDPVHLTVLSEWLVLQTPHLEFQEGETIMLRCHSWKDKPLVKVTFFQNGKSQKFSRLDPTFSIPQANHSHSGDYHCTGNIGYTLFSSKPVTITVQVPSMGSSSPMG
Nature of the assay: SPR (BIACORE), antibody captured, FcgR analyte.

For assay [9], the target named is T9, human FcγRIIb extracellular domain with C-terminal His-tag (human, UniProt P31994 43-217).
T9 construct: also called human FcgRIIb
T9 sequence: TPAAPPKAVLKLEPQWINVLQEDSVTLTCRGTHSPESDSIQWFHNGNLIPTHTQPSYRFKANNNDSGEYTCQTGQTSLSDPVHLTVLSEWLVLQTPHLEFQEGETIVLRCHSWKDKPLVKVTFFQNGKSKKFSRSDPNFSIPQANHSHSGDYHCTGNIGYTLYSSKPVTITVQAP
Nature of the assay: SPR (BIACORE), antibody captured, FcgR analyte.

B1: MS_M103205H795-SG1/M103202L889-SK1 (antibody, human IgG1, kappa)
heavy: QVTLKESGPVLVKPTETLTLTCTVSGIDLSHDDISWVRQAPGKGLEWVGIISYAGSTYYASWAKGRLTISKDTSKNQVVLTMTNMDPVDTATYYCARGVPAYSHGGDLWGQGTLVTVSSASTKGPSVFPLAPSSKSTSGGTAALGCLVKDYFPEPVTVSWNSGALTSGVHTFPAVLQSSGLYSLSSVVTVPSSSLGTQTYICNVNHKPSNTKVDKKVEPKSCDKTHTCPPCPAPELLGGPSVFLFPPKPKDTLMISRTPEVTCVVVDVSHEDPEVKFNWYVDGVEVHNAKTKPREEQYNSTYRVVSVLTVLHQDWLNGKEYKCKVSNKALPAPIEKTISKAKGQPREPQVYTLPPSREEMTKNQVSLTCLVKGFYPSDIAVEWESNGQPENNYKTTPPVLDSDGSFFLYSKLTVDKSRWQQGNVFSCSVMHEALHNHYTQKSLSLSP
light: DIVMTQSPATLSLSPGERATLSCTSSQSVYHANWLSWFQQKPGQPPKLLIYWASTLAYGVPSRFSGSGSGTDFTLTISSLQPEDAATYYCAGGYGGGRYAFGQGTKVEIKRTVAAPSVFIFPPSDEQLKSGTASVVCLLNNFYPREAKVQWKVDNALQSGNSQESVTEQDSKDSTYSLSSTLTLSKADYEKHKVYACEVTHQGLSSPVTKSFNRGEC
notes: Parent antibody with heavy chain constant region SG1; also called MS1032LO06-SG1; copies: 2 + 2
Turning to B1, the “KD fold (SG1 = 1)” value in assay [1] and in [2] was 1 fold throughout.

B2: M103205H795-MY532/M103202L889-SK1 (antibody, human IgG1, kappa)
heavy: QVTLKESGPVLVKPTETLTLTCTVSGIDLSHDDISWVRQAPGKGLEWVGIISYAGSTYYASWAKGRLTISKDTSKNQVVLTMTNMDPVDTATYYCARGVPAYSHGGDLWGQGTLVTVSSASTKGPSVFPLAPSSKSTSGGTAALGCLVKDYFPEPVTVSWNSGALTSGVHTFPAVLQSSGLYSLSSVVTVPSSSLGTQTYICNVNHKPSNTKVDKKVEPKSCDKTHTCPPCPAPEWLTGPVVFLFPPKPKDTLMISRTPEVTCVVVDVSDEDPEVKFNWYVDGVEVHNAKTKPREEQYNSTYRVVSVLTVLHQDWLNGKEYKCKVSNKALPKPIEKTISKAKGQPREPQVYTLPPSREEMTKNQVSLTCLVKGFYPSDIAVEWESNGQPENNYKTTPPVLDSDGSFFLYSKLTVDKSRWQQGNVFSCSVMHEALHNHYTQKSLSLSP
light: DIVMTQSPATLSLSPGERATLSCTSSQSVYHANWLSWFQQKPGQPPKLLIYWASTLAYGVPSRFSGSGSGTDFTLTISSLQPEDAATYYCAGGYGGGRYAFGQGTKVEIKRTVAAPSVFIFPPSDEQLKSGTASVVCLLNNFYPREAKVQWKVDNALQSGNSQESVTEQDSKDSTYSLSSTLTLSKADYEKHKVYACEVTHQGLSSPVTKSFNRGEC
notes: Substitutions introduced into M103205H795-SG1, expressed with M103202L889-SK1 as light chain; EU numbering
Usually Kd stands for the concentration at which binding is half-saturated. With B2, the Kd in assay [3] is 600 nM; in assay [4], 740 nM; in assay [5], 230 nM; in [6], 860 nM; in assay [7], 210 nM; in assay [8], 190 nM. Further, the Kd in assay [9] is 830 nM.

B3: M103205H795-MY442/M103202L889-SK1 (antibody, human IgG1, kappa)
heavy: QVTLKESGPVLVKPTETLTLTCTVSGIDLSHDDISWVRQAPGKGLEWVGIISYAGSTYYASWAKGRLTISKDTSKNQVVLTMTNMDPVDTATYYCARGVPAYSHGGDLWGQGTLVTVSSASTKGPSVFPLAPSSKSTSGGTAALGCLVKDYFPEPVTVSWNSGALTSGVHTFPAVLQSSGLYSLSSVVTVPSSSLGTQTYICNVNHKPSNTKVDKKVEPKSCDKTHTCPPCPADELLTGPSVFLFPPKPKDTLMISRTPEVTCVVVDVSDEDPEVKFNWYVDGVEVHNAKTKPREEQYNSTYRVVSVLTVLHQDWLNGKEYKCKVSNKALPKPIEKTISKAKGQPREPQVYTLPPSREEMTKNQVSLTCLVKGFYPSDIAVEWESNGQPENNYKTTPPVLDSDGSFFLYSKLTVDKSRWQQGNVFSCSVMHEALHNHYTQKSLSLSP
light: DIVMTQSPATLSLSPGERATLSCTSSQSVYHANWLSWFQQKPGQPPKLLIYWASTLAYGVPSRFSGSGSGTDFTLTISSLQPEDAATYYCAGGYGGGRYAFGQGTKVEIKRTVAAPSVFIFPPSDEQLKSGTASVVCLLNNFYPREAKVQWKVDNALQSGNSQESVTEQDSKDSTYSLSSTLTLSKADYEKHKVYACEVTHQGLSSPVTKSFNRGEC
notes: copies: 2 + 2
For the molecule B3, the “KD fold (SG1 = 1)” value amounted to 1.6 fold in [1] and 2.6 fold in [2].
